B1: anti-CLDN4 monoclonal antibody KM3900 produced by hybridoma KM3900 (FERM BP-10751) (antibody, V domains shown)
VH: EVQLQQSGPELVKPGASVKISCKASGYTFTDYYMNWVKQSHGKSLEWIGDVVPNNGVPTYNQKFKGKATLTVDKSSSTAYMELRSLTSEDSAVYYCARPHYYYAGRSGAMDYWGQGTSVTVSS
VL: QIVLTQSPAIMSASLGERVTMTCTASSTVSSTYLHWYQQKPGSSPKLWIYSTSNLASGVPARFSGSGSGTSYSLTISSMEAEDAATYYCHQYHRSPPTFGGGTKLEIK
notes: Used as hybridoma culture supernatant (8.6 µg/ml) or purified antibody (5 µg/ml); also called anti-CLDN4 mouse antibody KM3900
B2: anti-CLDN4 monoclonal antibody KM3907 produced by hybridoma KM3907 (FERM BP-10885) (antibody, mouse IgG2a, V domains shown)
VH: QVQLQQSGPELVKPGASVKISCKASGYAISTSWMNWVKQRPGKGLEWIGRINPGDGNTNYNGKFMAKATLTADKPSSTAYMQLSSLTSEDSAVYFCTRGDRWSGAMDYWGQGTSVTVSS
VL: GNVLTQSPAIMSASPGEKVTMTCRASSSVSSSYLHWYQQKSGASPKLWIYSTSNLASGVPVRFSGSGSGTSYSLTISSVEAEDAATYYCQQYSGFPLTFGAGTKLELK

What was measured:
[1] = molecular target: T1, human CLDN4 (Claudin-4) expressed by human cancer cell lines (Capan-2, HPAF-II, MCF7, HT-29, SW480, 22Rv1, DU … (human, UniProt O14493 1-209)); experiment: FCM on live Capan-2 and HPAF-II cells, 8.6 µg/ml
T1 construct: Endogenous protein on cell lines; MCF7 is said to express both CLDN3 and CLDN4; also called CLDN4 expressed in breast cancer cells, colorectal cancer cells and prostate cancer cells
T1 sequence: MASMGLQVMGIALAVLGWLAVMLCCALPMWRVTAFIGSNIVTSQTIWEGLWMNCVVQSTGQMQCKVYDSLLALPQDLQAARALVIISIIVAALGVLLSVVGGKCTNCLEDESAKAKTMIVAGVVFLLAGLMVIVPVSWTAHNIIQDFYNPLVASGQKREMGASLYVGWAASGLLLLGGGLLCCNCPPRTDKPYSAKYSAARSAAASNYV
Protocol: Human pancreatic cancer cell lines Capan-2 and HPAF-II human lymphoma cell line Daudi (ATCC CCL-213), human breast cancer cell line MCF7 (ATCC HTB-22), human colorectal cancer cell lines HT-29 (ATCC HTB-38) and SW480 (ATCC CCL-228) and human prostate cancer cell line s 22Rv1 (ATCC CRL-2505), DU 145 (ATCC HTB-81) and PC-3 (ATCC CRL-1435) were cultured for 3 to 4 days, and adhered cells were peeled off using 0.02% EDTA solution (manufactured by Nacalai Tesque) to recover the cells. The thus recovered cells were washed with PBS and, in order to prevent nonspecific adsorption of antibodies, blocked at ice temperature for 30 minutes using BSA-PBS. The cells were dispensed at 1 to 5×10⁵ cells/100 μl BSA-PBS into a 96-well U bottom plate and centrifuged (1,500 rpm, 5 minutes), the supernatant was removed and then a mouse anti-serum to be immunized, a culture supernatant of hybridoma KM3900 (8.6 μg/ml), anti-CLDN4 monoclonal antibodies KM3900 and KM3907 diluted to 5 μg/ml or a mouse IgG2a isotype control (manufactured by DAKO) was dispensed as the primary antibody at 100 μl/well and allowed to react at ice temperature for 60 minutes. […] After the reaction, the cells were washed once with BSA-PBS and suspended in PBS, and the fluorescent intensity was measured by FCM (manufactured by Beckman Coulter). […]

[2] = molecular target: T1, human CLDN4 (Claudin-4) expressed by …; experiment: FCM on live cancer cell lines, 5 µg/ml
Protocol: Human pancreatic cancer cell lines Capan-2 and HPAF-II human lymphoma cell line Daudi (ATCC CCL-213), human breast cancer cell line MCF7 (ATCC HTB-22), human colorectal cancer cell lines HT-29 (ATCC HTB-38) and SW480 (ATCC CCL-228) and human prostate cancer cell line s 22Rv1 (ATCC CRL-2505), DU 145 (ATCC HTB-81) and PC-3 (ATCC CRL-1435) were cultured for 3 to 4 days, and adhered cells were peeled off using 0.02% EDTA solution (manufactured by Nacalai Tesque) to recover the cells. The thus recovered cells were washed with PBS and, in order to prevent nonspecific adsorption of antibodies, blocked at ice temperature for 30 minutes using BSA-PBS. The cells were dispensed at 1 to 5×10⁵ cells/100 μl BSA-PBS into a 96-well U bottom plate and centrifuged (1,500 rpm, 5 minutes), the supernatant was removed and then a mouse anti-serum to be immunized, a culture supernatant of hybridoma KM3900 (8.6 μg/ml), anti-CLDN4 monoclonal antibodies KM3900 and KM3907 diluted to 5 μg/ml or a mouse IgG2a isotype control (manufactured by DAKO) was dispensed as the primary antibody at 100 μl/well and allowed to react at ice temperature for 60 minutes. […] After the reaction, the cells were washed once with BSA-PBS and suspended in PBS, and the fluorescent intensity was measured by FCM (manufactured by Beckman Coulter).

| Binder | binding result [1] | binding result [2] |
| --- | --- | --- |
| B1 | binds | – |
| B2 | – | binds |
